This passage reports Km results from paper doi:10.1101/2021.09.21.461191v4.

Substrate in this data set: OC[C@@H](O)[C@H](O)[C@@H](O)CO
As to the kind of experiment: cells, lysate or membranes. To be noted: proton symport, membrane voltage -40 mV, external pH 5.5.

B1: BvPMT5a (Beta vulgaris subsp. vulgaris) (protein)
chain: MSEGTNKAMSDPPPTTASKVIADFDPLKKPPKRNKFAFACATLASMTSVLLGYDIGVMSGAIIYLKEDWHISDTQIGVLVGILNIYCLFGSFAAGRTSDWIGRRYTIVLAGAIFFVGALLMGFATNYAFLMVGRFVTGIGVGYALMIAPVYTAEVSPASSRGFLTSFPEVFINAGILLGYISNLAFSSLPTHLSWRFMLGIGAIPSIFLAIGVLAMPESPRWLVMQGRLGDAKKVLNRISDSPEEAQLRLSEIKQTAGIPAECDEDIYKVEKTKIKSGNAVWKELFFNPTPAVRRAVIAGIGIHFFQQASGIDAVVLYSPRIFQSAGITNARKQLLATVAVGVVKTLFILVATFQLDKYGRRPLLLTSVGGMIIAILTLAMSLTVIDHSHHKITWAIALCITMVCAVVASFSIGLGPITWVYSSEVFPLRLRAQGTSMGVAVNRVVSGVISIFFLPLSHKITTGGAFFLFGGIAIIAWFFFLTFLPETRGRTLENMHELFEDFRWRESFPGNKSNNDENSTRKQSNGNDKSQVQLGETTTSTTVTNDNH
As to B1, the Km was 2500 µM.
